# Laboratory results taken from US11739161B2, “Methods for treating and diagnosing prostate cancer” (Tufts Medical Center, Inc., priority 2017, dated 2023).
# Columns and labels:
# [1] = system: DU145 cells; experiment: Cell cycle analysis by flow cytometry; format: cell-based, human; conditions: exogenous RNASE4 1 μg/ml
# Method: FIGS. 10A-E. RNASE4 induces prostate cancer cell proliferation and phosphorylation of AKT and S6. (A and B) Exogenous RNASE4 (1 μg/ml) stimulates cell proliferation (A) and cell cycle progression (B) of DU145 cells cultured in the presence of 2% FBS. Cell numbers were determined by MTT assay. […] (C) Time course of AKT and S6 phosphorylation of serum-starved DU145 cells by RNASE4 (1 μg/ml). Left panels, immunoblots; right panels, quantification of p-AKT and p-S6 normalized to total AKT and S6 by Image J analysis. […] Cells were pre-incubated with the inhibitors at the indicated concentrations for 1 hour prior to be stimulated by 1 μg/ml of RNASE4 for 5 minutes. Top panels, immunoblots; bottom panels, Image J quantification of p-AKT and p-S6 normalized to total AKT and S6. (E) Effect of AKT inhibitor MK-2206, PI3K inhibitors Wortmannin and LY294002, and mTOR inhibitor Rapamycin on RNASE4-induced cell proliferation. DU145 cells were serum-starved overnight, incubated with the inhibitors for 1 hour, and then treated with RNASE4 (1 μg/ml) for three days. Cell numbers were determined by MTT assay. Data shown are from a representative experiments in triplicates of 3 independent repeats. […]
# FIGS. 17A-C. […] Cell numbers were determined by a Coulter counter. […] Cell cycle status was determined by flow cytometry. […] Bottom panels, tube length and number of loops counted from 5 randomly selected areas. […]
# [2] = system: AXL phosphorylation in PC-3 cells; experiment: AXL phosphorylation (phospho-RTK array, immunoblot); format: cell-based, human; conditions: serum-starved PC-3, 1 μg/ml RNASE4
# Method: FIGS. 11A-F. RNASE4 induces PC-3 cell proliferation and phosphorylation of AKT and S6. (A) Exogenous RNASE4 (1 μg/ml) stimulates PC-3 cells proliferation in the presence of 2% FBS. Cell numbers were determined by MTT assay. (B) Time course of AKT and S6 phosphorylation of serum-starved PC-3 cells by RNASE4 (1 μg/ml). Left panels, immunoblots; right panels, quantification of p-AKT and p-S6 normalized to total AKT and S6 by Image J. (C) Effect of AKT inhibitor MK-2206, PI3K inhibitors LY294002 and Wortmannin, and mTOR inhibitor Rapamycin on RNASE4-induced PC-3 cell proliferation. Cells were pre-incubated with the inhibitors at the indicated concentrations for 1 hour prior to be stimulated by RNASE4 (1 μg/ml) for 3 days. Cell numbers were determined by MTT assay. (D) Human phospho-RTK antibody array analysis of starved PC-3 cells treated with or without 1 μg/ml RNASE4 for 5 minutes. (E) Time course of AXL phosphorylation stimulated by RNASE4 in PC-3 cells. […] Cell lysates were analyzed for total AXL and phopho-AXL by immunoblotting. Left panels, immunoblots; right panel, quantification phospho-AXL normalized to total AXL by Image J analysis. […] Cell numbers were determined by MTT assay. […]
# Human Phospho-RTK Arrays were purchased from R&D Systems. […] Protein concentrations were quantified by Bradford Assay and 1.5 mg cell lysate was used per array. Pixel densities on were analyzed by ImageJ. […]
molecule,measurement,setting,value
"RNASE4: recombinant human RNASE4 protein from pET11 expression in E. coli, purified by reversed-phase HPLC; added exogenously (protein, UniProt P34096 29-147, looked up) Ribonuclease 4: QDGMYQRFLRQHVHPEETGGSDRYCNLMMQRRKMTLYHCKRFNTFIHEDIWNIRSICSTTNIQCKNGKMNCHEGVVKVTDCRDTGSSRAPNCRYRAIASTRRVVIACEGNPQVPVHFDG",G0/G1 population,[1],decreased
same,G2/S/M phase population,[1],increased
same,phosphorylation of AXL,[2],induced phosphorylation
